{"source": "paper PMC12153317", "about": "(mBio, 2025)", "target": "HA head of A/American black duck/New Brunswick/00464/2010(H4N6) (Influenza A virus A/American black …, strain)", "assay": "crystal structure", "details": "both partners purified", "data": [{"binder": "S8V1-157 Fab (crystallization) (Fab, V domains shown, source: 293F, transient transfection, purified (TALON resin, Superdex 200)) VH: EVQLVQSGAEVKKPGASVKVSCKVSGYRLTALSMHWVRQAPGKGLEWMGGFDPEEDETIYAQNFQGRVTLTEDTSTDTVYMELSSLRSEDTGVYYCATLMGANPFDYWGQGTLIIVSG VL: not shown", "values": [{"measurement": "binding result", "result": "binds"}]}]}
